According to US9993566B2, “SEZ6 modulators and methods of use” (AbbVie Stemcentrx LLC, priority 2013, dated 2018):

B1: hSC17.46: humanized (CDR grafted) anti-SEZ6 antibody derived from SC17.46 (antibody, V domains shown)
VH: QVQLVQSGAEVKKPGASVKVSCKASGYTFTSYWINWVRQAPGQGLEWIGNIFPDTTTTNYNEKFKGRVTLTRDTSISTAYMELSRLRSDDTAVYYCAREYYDGTYDAMDYWGQGTLVTVSS
VL: AIQMTQSPSSLSASVGDRVTITCKASQSVNNDVAWYQQKPGKAPKLLIYYASNRYTGVPSRFSGSGSGTDFTLTISSLQPEDFATYFCQQDYSSPRTFGQGTKLEIK
modifications: Humanized hSC17.46 VH; Humanized hSC17.46 VL
B2: hSC17.16: humanized (CDR grafted) anti-SEZ6 antibody derived from SC17.16 (antibody, V domains shown)
VH: QVQLVQSGAEVKKPGASVKVSCKASGYTFTDYNMYWVRQAPGQGLEWMGEINPNNGGTAYNQKFRGKVTMTRDTSISTAYMELSRLRSDDTAVYYCARYDKGFDYWGQGTTVTVSS
VL: DIQMTQSPSSLSASVGDRVTITCRASANINSNLVWYQQKPGKAPKLLIYAATNLADGVPSRFSGSGSGTDFTLTISSLQPEDFATYYCQHFWGTPRTFGGGTKLEIK
modifications: Humanized hSC17.16 VH; Humanized hSC17.16 VL
B3: hSC17.34: humanized (CDR grafted) anti-SEZ6 antibody derived from SC17.34 (antibody, V domains shown)
VH: QVQLVQSGAEVKKPGASVKVSCKASGYTFTDYNMDWVRQAPGQRLEWIGYIYPDNGGAGYNQKFKGRVTITVDTSASTAYMELSSLRSEDTAVYYCSRSITTAWFAYWGQGTLVTVSS
VL: DIQMTQSPSSLSASVGDRVTITCKASQDINSYLSWFQQKPGKAPKSLIYRANRLVDGVPSRFSGSGSGTDYTLTISSLQPEDFATYYCLQYDEFPPTFGQGTKLEIK
modifications: Humanized hSC17.34 VL
B4: hSC17.17: humanized (CDR grafted) anti-SEZ6 antibody derived from SC17.17 (antibody, V domains shown)
VH: QVQLVQSGAEVKKPGASVKVSCKASGYTFTDYNMHWVRQAPGQGLEWMGEINPNIGGTGYNQKFKGRVTMTRDTSISTAYMELSRLRSDDTAVYYCARTYSYYSYEFAYWGQGTLVTVSS
VL: EIVLTQSPATLSLSPGERATLSCSASSSVSYMHWYQQKPGQAPRLLIYDTSKLPSGIPARFSGSGSGTDFTLTISSLEPEDFAVYYCQQWSSTPPTFGQGTKLEIK
modifications: Humanized hSC17.17 VH; Humanized hSC17.17 VL
B5: hSC17.28: humanized (CDR grafted) anti-SEZ6 antibody derived from SC17.28 (antibody, V domains shown)
VH: QVQLVQSGAEVKKPGASVKVSCKASGYTFTRSYIHWVRQAPGQGLEWMGYISSGSGGTTYNQKFKGRVTSTRDTSISTAYMELSRLRSDDTAVYYCARGGVRYFDVWGQGTTVTVSS
VL: EIVLTQSPDFQSVTPKEKVTITCRASQSIGTSIHWYQQKPDQSPKLLIKYASESISGVPSRFSGSGSGTDFTLTINSLEAEDAATYYCQQSNSWPLTFGQGTKLEIK
modifications: Humanized hSC17.28 VH; Humanized hSC17.28 VL
B6: SC17.42: murine anti-SEZ6 antibody (antibody, V domains shown)
VH: DVKLVESGGGLVRPGGSLKLSCAASGFTFSRYTMSWVRQTPEKRLEWAATINSGGSNTYYPDSVKGRFTISRDNAKNTLFLQMSSLKSEDTAMYYCTNGNHWGQGTTLTVSS
VL: ENVLTQSPAIMSASPGEKVTMTCSASSSVNYMYWYQQKSSTSPKLWIYDTSKLTSGVPGRFSGSGSGNSYSLTISNMEAEDVATYYCFQGSGYPLTFGSGTKLEIK
modifications: Murine SC17.42 VH; Murine SC17.42 VL
notes: murine anti-SEZ6 antibody
B7: SC17.28: murine anti-SEZ6 antibody (antibody, V domains shown)
VH: QVHLPQSRPELVKPGASVKISCKASGYGFTRSYIHWVKQRPGQGLEWIGYISSGSGGTTYNQKFKGKASLTADNPSSTAYMHLSSLTSEDSAIYFCARGGVRYFDVWGAGTTVTVSS
VL: DILLTQSPAILSVSPGEGVSFSCRASQSIGTSIHWYQQRTNGSPRLLIKYASESISGIPSRFSGSGSGTDFTLRINSLESEDIADYYCQQSNSWPLTFGAGTKLELK
modifications: Murine SC17.28 VH; Murine SC17.28 VL
notes: murine anti-SEZ6 antibody

Columns and labels:
Format in all cases: binding
[1] = target: T1, human recombinant SEZ6-His (Homo sapiens, UniProt Q53EL9); assay: Affinity by bio-layer interferometry (ForteBio RED) or surface plasmon resonance (Biacore 2000); conditions: surface plasmon resonance
T1 construct: The cDNA fragment encoding the ECD of SEZ6 was amplified from the hSEZ6 cDNA clone; IgK signal peptide (N, cleaved yes); made in house; host or cells: HEK-293T and/or CHO-S
Experimental: Various methods were used to analyze the binding and immunochemical characteristics of selected SEZ6 modulators generated as set forth above. Specifically, a number of the antibody modulators were characterized as to affinity, binning, and cross reactivity with regard to human, cynomolgus, rat and mouse SEZ6 antigen along with SEZ6L and SEZ6L2 proteins by art-recognized methods including flow cytometry. Affinities and kinetic constants kon and koff of the selected modulators were measured using bio-layer interferometry analysis on a ForteBio RED (ForteBio, Inc.) or surface plasmon resonance using a Biacore 2000 each according to the manufacturer's instructions.
To verify the cross reactivity data above for rat SEZ6 and to determine the affinity and kinetic constants kon and koff of the selected effectors, either bio-layer interferometry analysis on a ForteBio RED (ForteBio, Inc.) or surface plasmon resonance on a Biacore 2000 (GE Healthcare) were conducted. Affinities were determined to both human recombinant SEZ6-His and rat recombinant SEZ6-His generated in Example 5.
Binding characteristics of the following humanized constructs from Example 8, hSC17.16, hSC17.17, hSC17.24, hSC17.28, hSC17.34 and hSC17.46, were analyzed in order to determine whether the CDR grafting process had appreciably altered their binding characteristics. The humanized constructs (CDR grafted) were compared with “traditional” chimeric antibodies comprising the murine parent (or donor) heavy and light chain variable domains and a human constant region substantially equivalent to that used in the humanized constructs. With these constructs surface plasmon resonance was conducted using a Biacore 2000 (GE Healthcare) to identify any subtle changes in rate constants brought about by the humanization process.

[2] = tested on: rat SEZ6; assay: Flow cytometry cross reactivity, RIN-m5F cells; conditions: 5 μg/mL antibody
Experimental: (§1) In this regard flow cytometry was performed using a FACSCanto II as per the manufacturer's instructions in order to confirm that selected SC17 antibody modulators can immunospecifically associate with human SEZ6 and to determine whether the same modulators cross-react with cynomolgus, rat and/or murine SEZ6 in addition to SEZ6L and SEZ6L2. More particularly modulators were tested for cross reactivity to murine SEZ6 and rat SEZ6 by flow cytometry against Neuro2a (ATCC Cat # CCL131), and RIN-m5F (ATCC cat # CRL-11605) cell lines which express mouse SEZ6 and rat SEZ6, respectively. For examining cross reactivity to cynomolgus SEZ6, yeast displaying the extracellular domain of cynomolgus SEZ6 (Boder et al, 1997) were used for flow cytometry analysis.
(§2) Briefly 1×10^5 cells per well of Neuro2a, RIN-5mF, or yeast displaying cynomolgus SEZ6 cells were incubated for 30 minutes with 50 μL PBS (2% FCS) buffer with 5 μg/mL antibody. Cells were washed twice with the same buffer and then incubated with 50 μL per sample DyLight 649 labeled goat-anti-mouse IgG, Fc fragment specific secondary diluted 1:200 in PBS buffer. After incubating for 15 minutes cells were washed twice with the PBS buffer and re-suspended in the same with DAPI for flow cytometry analysis of Neuro2a and Rin-m5F or buffer without DAPI for flow cytometric analysis of yeast cells with cSEZ6.

[3] = target: T2, mouse SEZ6 (Mus musculus, UniProt Q7TSK2); assay: Flow cytometry cross reactivity, Neuro2a cells; conditions: 5 μg/mL antibody
T2 construct: Neuro2a (ATCC Cat # CCL131), and RIN-m5F (ATCC cat # CRL-11605) cell lines which express mouse SEZ6 and rat SEZ6; host or cells: Neuro2a
Experimental: as §1, §2

[4] = target: T3, SEZ6L2 (Homo sapiens, UniProt Q6UXD5, INS830AYEELLDNRKLEV); assay: ELISA cross reactivity to family member SEZ6L2; set-up: key to binds SEZ6 family member SEZ6L2 (dagger): *: antibodies that bind SEZ6 family members SEZ6L and SEZ6L2 are designated with an asterisk and/or a dagger, respectively; †: antibodies that bind SEZ6 family members SEZ6L and SEZ6L2 are designated with an asterisk and/or a dagger, respectively
T3 construct: IgK signal peptide (N, cleaved yes); made in house; host or cells: HEK-293T or CHO-S
Experimental: To determine cross reactivity to family member proteins, SEZ6L and SEZ6L2, an ELISA-based assay was used. Plates were coated with SEZ6, SEZ6L, or SEZ6L2 proteins at 0.2 μg/mL in PBS overnight. After washing with PBS containing 0.05% (v/v) Tween 20 (PBST), the wells were blocked with 2% (w/v) BSA in PBS (PBSA), 100 μL/well for 1 hour at room temperature. Antibody was then added at 1 μg/mL in 100 μL PBSA for 1 hour at room temperature. After washing with PBST, 100 μL/well HRP-labeled goat anti-mouse IgG diluted 1:2,000 in PBSA for 1 hour at room temperature. The plates were washed and 100 μL/well of the TMB substrate solution (Thermo Scientific 34028) was added for 15 minutes at room temperature. After developing, an equal volume of 2M H2SO4 was added to stop substrate development and analyzed by spectrophotometer at OD 450. […] As discussed above, such pan-SEZ6 antibodies are compatible with the teachings herein and may be used in conjunction with the disclosed methods.

T3 sequence (Q6UXD5 with tags, fused parts or gaps with the stated changes): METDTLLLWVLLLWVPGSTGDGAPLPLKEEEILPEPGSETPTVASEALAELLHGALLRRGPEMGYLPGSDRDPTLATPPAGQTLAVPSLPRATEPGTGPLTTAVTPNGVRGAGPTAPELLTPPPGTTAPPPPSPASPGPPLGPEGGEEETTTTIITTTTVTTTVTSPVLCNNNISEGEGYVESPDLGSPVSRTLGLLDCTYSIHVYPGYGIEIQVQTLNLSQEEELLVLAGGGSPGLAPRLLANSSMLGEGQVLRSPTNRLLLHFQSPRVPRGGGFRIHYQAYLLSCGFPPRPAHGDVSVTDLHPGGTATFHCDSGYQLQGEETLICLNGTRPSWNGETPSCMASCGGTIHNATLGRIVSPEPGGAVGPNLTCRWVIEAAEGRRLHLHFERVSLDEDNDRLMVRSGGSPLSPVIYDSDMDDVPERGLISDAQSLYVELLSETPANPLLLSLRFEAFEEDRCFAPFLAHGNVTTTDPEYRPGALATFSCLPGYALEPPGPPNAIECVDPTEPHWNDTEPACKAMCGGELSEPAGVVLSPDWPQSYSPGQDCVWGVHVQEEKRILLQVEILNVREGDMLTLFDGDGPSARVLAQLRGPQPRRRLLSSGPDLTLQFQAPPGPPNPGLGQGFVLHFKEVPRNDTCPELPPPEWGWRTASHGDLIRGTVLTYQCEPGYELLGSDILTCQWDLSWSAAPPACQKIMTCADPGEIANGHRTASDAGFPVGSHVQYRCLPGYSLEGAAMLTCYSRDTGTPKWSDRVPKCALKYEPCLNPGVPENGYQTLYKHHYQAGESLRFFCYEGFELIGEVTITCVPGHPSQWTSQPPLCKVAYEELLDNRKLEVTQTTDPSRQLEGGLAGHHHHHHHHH
Chain of rat SEZ6 (as listed by the source): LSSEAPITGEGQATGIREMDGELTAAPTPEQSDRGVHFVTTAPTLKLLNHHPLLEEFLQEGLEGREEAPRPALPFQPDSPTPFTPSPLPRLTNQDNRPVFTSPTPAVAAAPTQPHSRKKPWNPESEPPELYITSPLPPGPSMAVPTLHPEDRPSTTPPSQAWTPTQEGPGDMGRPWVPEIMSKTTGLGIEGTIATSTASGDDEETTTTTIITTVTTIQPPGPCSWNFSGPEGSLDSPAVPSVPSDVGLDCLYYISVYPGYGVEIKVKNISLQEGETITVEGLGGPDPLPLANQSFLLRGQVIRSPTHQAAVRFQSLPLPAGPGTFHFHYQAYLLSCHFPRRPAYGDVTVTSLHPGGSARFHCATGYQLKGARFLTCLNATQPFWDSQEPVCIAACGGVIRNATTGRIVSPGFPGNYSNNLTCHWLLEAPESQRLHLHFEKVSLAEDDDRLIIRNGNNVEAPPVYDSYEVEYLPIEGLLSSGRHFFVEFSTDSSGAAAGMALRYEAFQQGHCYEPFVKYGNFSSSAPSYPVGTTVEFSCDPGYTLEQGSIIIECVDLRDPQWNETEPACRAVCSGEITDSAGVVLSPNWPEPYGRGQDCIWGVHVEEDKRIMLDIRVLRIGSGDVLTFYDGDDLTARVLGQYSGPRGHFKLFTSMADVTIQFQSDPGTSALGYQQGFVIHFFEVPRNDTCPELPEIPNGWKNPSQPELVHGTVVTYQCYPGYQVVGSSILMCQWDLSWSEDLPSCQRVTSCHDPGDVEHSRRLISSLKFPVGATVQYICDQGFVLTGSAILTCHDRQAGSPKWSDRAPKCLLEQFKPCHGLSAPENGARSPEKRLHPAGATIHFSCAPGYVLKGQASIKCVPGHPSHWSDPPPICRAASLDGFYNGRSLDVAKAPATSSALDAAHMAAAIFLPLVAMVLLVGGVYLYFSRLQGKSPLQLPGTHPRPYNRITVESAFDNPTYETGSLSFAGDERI
T2 sequence (Q7TSK2 20-991): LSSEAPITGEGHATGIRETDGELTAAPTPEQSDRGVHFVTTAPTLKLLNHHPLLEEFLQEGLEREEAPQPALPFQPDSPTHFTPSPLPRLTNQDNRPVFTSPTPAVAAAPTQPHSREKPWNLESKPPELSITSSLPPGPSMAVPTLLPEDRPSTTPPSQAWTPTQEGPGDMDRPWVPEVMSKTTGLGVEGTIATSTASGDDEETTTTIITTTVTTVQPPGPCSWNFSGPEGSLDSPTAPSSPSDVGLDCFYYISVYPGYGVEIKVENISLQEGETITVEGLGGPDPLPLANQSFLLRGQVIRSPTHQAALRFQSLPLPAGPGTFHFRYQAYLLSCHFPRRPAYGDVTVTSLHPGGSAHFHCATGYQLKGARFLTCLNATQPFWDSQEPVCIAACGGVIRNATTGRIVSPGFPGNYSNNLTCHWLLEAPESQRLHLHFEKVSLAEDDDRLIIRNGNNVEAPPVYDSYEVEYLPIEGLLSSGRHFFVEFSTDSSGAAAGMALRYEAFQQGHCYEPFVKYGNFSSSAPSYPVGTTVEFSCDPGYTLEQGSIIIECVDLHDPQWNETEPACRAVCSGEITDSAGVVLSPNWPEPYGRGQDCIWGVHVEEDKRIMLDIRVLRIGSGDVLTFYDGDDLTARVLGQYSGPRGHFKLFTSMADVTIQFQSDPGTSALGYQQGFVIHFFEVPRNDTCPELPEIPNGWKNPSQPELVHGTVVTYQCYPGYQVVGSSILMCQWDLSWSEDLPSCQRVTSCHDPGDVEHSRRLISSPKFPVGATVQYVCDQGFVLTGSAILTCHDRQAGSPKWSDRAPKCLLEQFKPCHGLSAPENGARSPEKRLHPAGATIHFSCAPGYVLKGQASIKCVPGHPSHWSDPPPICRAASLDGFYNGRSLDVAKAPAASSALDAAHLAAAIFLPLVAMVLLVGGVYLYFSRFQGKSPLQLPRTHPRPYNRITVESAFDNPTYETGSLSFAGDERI

| Molecule | binding affinity compared with corresponding murine or chimeric antibody [1] | further results |
| --- | --- | --- |
| B1 | equivalent or better than the corresponding murine antibodies |  |
| B2 | equivalent or better than the corresponding murine antibodies |  |
| B3 | equivalent or better than the corresponding murine antibodies |  |
| B4 | equivalent or better than the corresponding murine antibodies |  |
| B5 | equivalent or better than the corresponding murine antibodies |  |
| B6 |  | cross reactivity to rat SEZ6 [2]: cross reactive; cross reactivity to murine SEZ6 [3]: cross reactive |
| B7 |  | cross reactivity to rat SEZ6 [2]: cross reactive; cross reactivity with SEZ6L2 ([4]; ELISA, antibody 1 μg/mL): cross-reactive; binds SEZ6 family member SEZ6L2 (dagger) ([4]; mark in Table 5): SC17.6^†, SC17.28^†, SC17.103, SC17.109, SC17.119, |
